Results taken from article doi:10.1101/2024.04.29.591313, “Discovery of a synthetic small molecule targeting the central regulator of Salmonella pathogenicity” (bioRxiv, 2024).

Target: the molecule itself
Assay: SEC-MALS; Superdex 75 Increase 10/300 GL; HilD (100 μM) incubated with 1% (v/v) DMSO or C26 (100 µM) for 20 min at room temperature; SEC buffer (50 mM NaH2PO4, pH 7.0, 200 mM NaCl); 0.5 ml/min

B1: HilD (natural protein)
chain: MENVTFVSNSHQRPAADNLQKLKSLLTNTRQQIKSQTQQVTIKNLYVSSFTLVCFRSGKLTISNNHDTIYCDEPGMLVLKKEQVVNVTLEEVNGHMDFDILEIPTQRLGALYALIPNEQQTKMAVPTEKAQKIFYTPDFPARREVFEHLKTAFSCTKDTSKGCSNCNNKSCIENEELIPYFLLFLLTAFLRLPESYEIILSSAQITLKERVYNIISSSPSRQWKLTDVADHIFMSTSTLKRKLAEEGTSFSDIYLSARMNQAAKLLRIGNHNVNAVALKCGYDSTSYFIQCFKKYFKTTPSTFIKMANH
notes: HilD, transcriptional regulator of Salmonella enterica serovar Typhimurium; the hilD gene was cloned into pET-24a(+) with an N-terminal His6-SUMO fusion; Dimer by SEC-MALS; 9 (printed only as an image); also called HilDWT; recombinant HilD; source: E. coli C41(DE3), purified (Ni-NTA, SUMO protease cleavage, second Ni-NTA, SEC Superdex 75); not shown: His6, N-terminal, cleaved; SUMO, N-terminal, …
  stoichiometry N: 2
